According to the nanobody polyreactivity screen of Harvey et al. (2022):

Experiment: yeast display, Sf9 membrane polyspecificity reagent, FACS + sequencing; frameworks hold sequencing errors
Outline: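 Synthetic nanobody libraries on Saccharomyces cerevisiae BJ5465 were galactose-induced for 36–48 hours, stained 1 hour at 4 °C with 10% biotinylated, detergent-solubilized Sf9 membrane reagent and enriched on streptavidin microbeads. FACS then separated cells into low and high (top ~1%) gates by anti-HA (expression) and streptavidin (reagent binding) fluorescence. Genes were colony-PCR amplified, MiSeq 2 × 250 sequenced and CDR-length filtered. A clone's polyreactivity label is that of its gate of origin.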

Row | Sequence | polyreactivity (PSR sort gate)
1 | QVQLVESGGGLVQAGRSLRLSCAASGSTFVHNAMGWYRQAPGKERELVAAISRSGGRTYYADSVKGRFTISRDNAKNTVYLQMNSLKPEDTAVYDCAAGLHWTRYPSAHYLFEYWGQGTQVTVSS | high polyreactivity
2 | QVQLVESGGGLVQAGRSLRLSCAASGSTFVNYAMGWYRQAPGKERELVAAISRSGGRTYYADSVKGRFTISRDNAKNTVYLQMNSLKPEDTAVYYCAPLLLSPEYGYWGQGTQVTVSS | high polyreactivity
3 | QVQLVESGGGLVQAGRSLRLSCAASGSTFWEYAMGWYRQAPGNEREFVAAISTSGGSTYYADSLKGRFTISRDTAKYTVYLQMNSLKPEDTAVYYCAAGRVRRRVWYNYWGQGTQVTVSS | high polyreactivity
4 | QVQLVESGGGLVQAGRSLRLSCAASGYTFSPNDMGWYRQAPGKERELVATITYGGGTTYYADSVKGRFTISRDNAKNTVYLQMNSLKPEDTAVYYCAKDVPLYRAHDGYDYWGQGTQVTVSS | low polyreactivity
5 | QVQLVESGGGLVQAGRSLRLSCAASGYTFYVYAMGWYRQAPGKERELVASISSGGITYYADSVKGRFTISRDNAKNTVYLQMNILKPEDTAVYYCAADWQWTYDYWGQGTQVTVSS | low polyreactivity
6 | QVQLVESGGGLVQAGRSLRLSCAASVSIFAGYAMGWYRQAPGKERELVAGISYSGGRTYYADSVKGRFTISRDNAKNTVYLQMNSLKPEDTAVYYCNARFVRVRKGYGYWGLGTQVTVSS | high polyreactivity
7 | QVQLVESGGGLVQAGRSLRVSCAASGRIFIWNAMGWYRQAPGNERELVAAISWSGGSTYYADSVKGRFTISRDNAKNTVYLQINSLKPEDTAVYYCAARDVRPYYVKPPVRYYYWGQGTQVTVSS | high polyreactivity
8 | QVQLVESGGGLVQAGRTLRLSCAASGFTFYYNAMGWYRQAPGKERELVATITGSTYYADSVKGLFTISRDNATYSVYLQMNSLKPEDTAVYYCTADASLVLAEYDYWGQGTQVTVSS | low polyreactivity
9 | QVQLVESGGGLVQAGVSLRISCAASASILVTNAMGWYRHAPGKERELVAAITSIGGSTNYADSVKGRFTISRDNAKNTVYLQMNSLKPEDTAVYYCAAGIYPTVFWVYYWGQGTQVTVSS | low polyreactivity
10 | QVQLVESGGGLVQAGVSLRLSCAASGFTFYYNAMGWYRQAPGKERELVAAINYSGGSTYYADSVKGRFTISRDNAKNTVYLQMNSLKPEDTAVYYCNAVGYSVFRRYNYWGQGTQVTVSS | high polyreactivity
11 | QVQLVESGGGLVQAGVSLRLSCAASGGTLSNYAMGWYRQAPGKERELVAAITYRGGSTYYADSVKGRFTISRDNAKNTVYLQMNSQKPEDTAVYSCAAPGFKPFSFDSWGQGTQVTVSS | low polyreactivity
12 | QVQLVESGGGLVQAGVSLRLSCAASGKTVYSYAMGWYRQAPGKKRQLVAGISYIGGRTYYADSVKGRFTISRDNAKNTFYLQMNSLNPEDTAFYYCAAVYWYGRRKYYSWGQGTQVTVSS | high polyreactivity
13 | QVQLVESGGGLVQAGVSLRLSCAASGLTFGNYAMGWYRQAPGKERELVAAISKRGGTTYYADSVKARFTISRDNAKNTVYLQMNSLKPEDTAVYYCSARDYSHPTDDNYWGQGTQVTVSS | high polyreactivity
14 | QVQLVESGGGLVQAGVSLRLSCAASGLTFKWNAMGWYRHAPGKEREFVAAITKRAGSTYYADSVKGRFTISRDNAKNTVYLQMNSLKPEDTAVYYCAADDGYFYARYDYWGHGTQVTVSS | low polyreactivity
15 | QVQLVESGGGLVQAGVSLRLSCAASGLTFSKYAMGWYREAPGNERDLVAAITRGDRTYYADSVKGRFTISRDNAKNTVYLHMNSLKPADTAVYYCAARQYYWGQGTQVTVSS | high polyreactivity
16 | QVQLVESGGGLVQAGVSLRLSCAASGRIFGENAMGWYRQAPGEEREFVAVISISDASTYYADSVKGRFTISRDNAKNTVYFQMNSLKPEDTAVYYCAADLTDFLYVASDYCGQGTQVTVSS | low polyreactivity
17 | QVQLVESGGGLVQAGVSLRLSCAASGRIFYAYAMGWYRKAPGKERELVAAISSSGRTYYADSVKGRLTISRDNAKNTVYLQMNSLKPEDTAVYYCAVDWSRQAHKFNYWGQGTQVTVSS | high polyreactivity
18 | QVQLVESGGGLVQAGVSLRLSCAASGRTFGYNAMGWYRQAPGKERVVVAAITIGGSTNYADSVKGRFTISRDNAKNTVYLQMNSLKPEDTAVYYCAAYDTLLYWVEFYYWGQGTQVTVSS | low polyreactivity
19 | QVQLVESGGGLVQAGVSLRLSCAASGRTFGYYTMGWSRQAPGKERELVAGISSAGSTNYADSVKGRFTISRDNAKNTVYFQMNSLKPADTAVYDCAARTYKVIQNNSWETYYYWGQGTQVTVSS | high polyreactivity
20 | QVQLVESGGGLVQAGVSLRLSCAASGRTFRSNAMGWYRQSPGKERELVAAITASGGNTYYADSVKGRFTISRDNAKNTVYLQMNSLKPEDTAVYYCAAVSRYNYGTNPYYYWGQGTQVTVSS | high polyreactivity
21 | QVQLVESGGGLVQAGVSLRLSCAASGRTFTSYPMGLYRQAPGKERELVAAISSRGGSTSYADSVKGRLTISRDNANNTVYLQMNSLKEEDTAVYYCARRIRQQRFGGNYWGQGTQVTVSS | high polyreactivity

Row | Sequence | polyreactivity (PSR sort gate)
22 | QVQLVESGGGLVQAGVSLRLSCAASGRTFVHYTMGWSRQSPGKERELVATISTSGGSTSYADSVKGRFTISRDNAKNTVYLQMNSLKPEDTAVYYCAARWYFPDRVKYDYWGQGTQVSVSS | low polyreactivity
23 | QVQLVESGGGLVQAGVSLRLSCAASGSTFSVNAMGWYRQAPGKERELVAAITYSGGSTYYADSVKGRFTISRDNAKNTVYLQMNSLKPEDTAVYYCAAEGGSALDDDYWGQGTQVTVSS | high polyreactivity
24 | QVQLVESGGGLVQAGVSLRLSCAASGSTFTSYAMGWYRQAPGKERELVAAINDSAGSTYYADSVKGRFTISRDNAKNTAYLQKNSLKPDDTAVYYCAADGYNRQYVTYYYWGQGTQVTVSS | low polyreactivity
25 | QVQLVESGGGLVQAGVSLRLSCAASGSTFTYYAMGWYRQAPGKERELVAAITNSGGSTYYAVSVKGRFTISRDNAKNTVYLQMNSLKPEDTAVYYCAATRVDSDDRTRFYYWGQGTQVTVSS | high polyreactivity
26 | QVQLVESGGGLVQAGVSLRLSCAASGSTFVGYAMGWYRQAPGKERELVAAISYSGGSTYYADSVKGRFTISRDNAKNTVYLQMHSLKPEDTAVYYCAAEWSRHYYYGPRYDYWGQGSQVTVSS | low polyreactivity
27 | QVQLVESGGGLVQAGVSLRLSCAASGSTLVYYAMGWYRQAPGKERELVAAITRSGDNTYYADSVKGRFTISRDNAKNTVYLQMNSLKPEDTAVYYCAVKKRVYSGDYWGQGTQVTVSS | high polyreactivity
28 | QVQLVESGGGLVQAGVSLRLSCAASGSTYNAMGWYRQAPGKEREFVAAITSSGGSTYYADSVKGRFTISRDNAKNTVYLHMNSLNPEDTAVYYCASSYWTAWYQLDYWGQGTQVTVSS | high polyreactivity
29 | QVQLVESGGGLVQAGVSLRLSCASSGSIFPEYVMAWYRQAPGKERELVAAISWSGGSTYYADSVKGRITISRDNAKNTVYFQMNCLKQEATAVYYCNRVPSWRIDYDYWGQGTLVTVSS | low polyreactivity
30 | QVQLVESGGGLVQAGVSLRLSCDASGSIFDPYAMGWFRQAPGKEMELVAAITASGSSTYYADSVKGRFTISRDNAKNTVYLQMNSLKPEDTAVYYCAADRANWEYLLSWLGYDYWGQGTQVTVSS | low polyreactivity
31 | QVQLVESGGGLVQAGVSLRLSFAASGSTFRGYAMGWYRQAPGKEREVVAAISSRGARTHYAHSVKGRFTISRDNAKNTVYLQMYSLKPVDTAVNYCNKRQVFVSTGEYEFDYCGQGTQVTVSS | low polyreactivity
32 | QVQLVESGGGLVQAGVSLRVSCAASGRTFSRYTMGWYRQAPGKEREMVAAISKRGGSTYYADSVKGRFTISRDNAKNTVYLQRNSLKPEETAVYYCNAYGLVGLVGVIMYYWGQGTQVTVSS | high polyreactivity
33 | QVQLVESGGGLVQARCSLRLSCAASGSTFLRYAMGWYRQAPGKERELVATISSSDDGTYYADSVKGRFTISRDIAKNTVYLQMNSLKPEDTAVYYCAARSWYLYYYWGQGTQVTVSS | low polyreactivity
34 | QVQLVESGGGLVQARGSLRLICAASGYIFRGYAMGWYRQAPGKERELVASISRTGVSTYYADSVKGRFTISRDNAKNTVYLQMNSLKPEDTAVYYCAADYYYWYYKSGYDYWGQGTQVTVSS | high polyreactivity
35 | QVQLVESGGGLVQARGSLRLSCAASGFTFDTYAMGSYRQAPGKARELVAVLSRGGSTYYADSVKGRFTISRDKAKNTVYLQMNSLKPEDPAVYFCNAKHKQGRKQFKLGAGYYWGQGTQVTVSS | high polyreactivity
36 | QVQLVESGGGLVQARGSLRLSCAASGFTFYSNAMGWYRQAPGKERELVAVINSDDDSTYYADSVKGRFTISRDNAKNTVYLQMNSLKPEDTAVYYCNKVWRVGKYPYSDRYYFGGGYWGQGTQVTVSS | high polyreactivity
37 | QVQLVESGGGLVQARGSLRLSCAASGLTFRRNTMGWYRQAPGKERELVATITSGGSTNYADSVKGRFTISRDNAKNTVYLQMISLKPEDTAVYYCAARTTYITNWVYRHTYTYYYWGQGTQVTVSS | high polyreactivity
38 | QVQLVESGGGLVQARGSLRLSCAASGLTFYYYVMGWYRQAPGKERELVAAISYSGGRTYYADSVKGRFTISRDNAKNTVYLQMNSLKPEDTAVYYCAAQSRYGGKFYYWGQGTQVTVSS | high polyreactivity
39 | QVQLVESGGGLVQARGSLRLSCAASGRIFSYYAMGWYRQAPGKERELVATISKSGGSTYYADSVKGRFTISRDNAKNTVYLQMNSLKPEDTALYYCAAVGPYRWYDYWGQGTQVTVSS | high polyreactivity
40 | QVQLVESGGGLVQARGSLRLSCAASGRNFADYAMGWYRQAPGKERELVAAIDWSDGSTKYADSVKGRFTISRDNAKNTVYLQINSLKPEDTAVYYCGADYWPRDGLGWWYDYWGQGTQVTVSS | low polyreactivity
41 | QVQLVESGGGLVQARGSLRLSCAASGRTFVDYVMGWYRQAPGKERELVAAITYSGGSTSYADSVKGRFTISRDYAKNNFNLQMNSLKPEDTAVYYCNADGDHPYSRNDYWGQGTQVTVSS | low polyreactivity
